This note sets out measurements from patent publication US20050049403A1 (CAMBRIDGE ANTIBODY TECHNOLOGY, published 2005).

Assay [1] has as its target T1, recombinant human TGFβ2 (human, UniProt P61812 303-414).
T1 construct: mature; also called TGFbeta2; rhTGFβ2
T1 sequence (looked up): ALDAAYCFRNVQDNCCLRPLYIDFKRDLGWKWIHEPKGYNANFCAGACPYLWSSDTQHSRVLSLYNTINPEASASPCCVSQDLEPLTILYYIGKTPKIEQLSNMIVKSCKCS
Put plainly: radioreceptor assay, inhibition of 125I-TGFβ2 binding to A549 cells; concentration of antibody combining sites. As for the experimental part:
Cells are seeded at 1-2×10^5 cells/ml/well into the wells of 24-well cluster plates and grown for 24 h in serum-free DMEM. Cell monlayers are washed twice with serum-free DMEM and 0.5 ml binding medium (DMEM/Hams F12 (Sigma D-6421) containing 0.1% (v/v) BSA added to each well.
(§1) Aliqouts of ¹²⁵I-TGFβ1 or TGFβ2 (70-90 TBq/mmol; Amersham International) at 20 pM are preincubated with antibody in binding medium at room temperature for 1 h. Duplicate samples of 0.5 ml of TGFβ/antibody mixtures are then added to the cell monlayers and are incubated at 37° C. for 1-2 h. Control wells contain TGFβ only. Unbound TGFβ is removed by washing 4 times with Hank's balanced salt solution containing 0.1% BSA. Cells are solubilised in 0.8 ml 25 mM Tris HCl pH 7.5, 10% glycerol, 1% Triton X-100 at room temperature for 20 min. The contents of each well are removed and ¹²⁵I measured in a gamma counter.

Assay [2] addresses T1, recombinant human TGFβ2. Put plainly: BIAcore 2000, koff divided by kon. As for the experimental part: To determine the kinetic parameters, a series of dilutions of the antibody samples was made in HBS from about 500 μg/ml down to less than 1 μg/ml, usually through doubling dilutions. After the antibody has been injected over the antigen surface, the surface is washed with HBS, then regenerated by stripping off the bound antibody with a pulse of 100 mM HCl. At the higher concentrations of antibody the antigen on the chip surface is saturated, and the off rate is determined on washing with buffer in the dissociation phase. For determination of the on-rate, lower concentrations of antibody are used, giving a linear binding phase in the sensorgram, allowing kₒₙ determination.
6B1 IgG4 was purified from the GS/NS0 cell line of Example 10 as in Example 2. 6B1 single chain Fv was expressed intracellularly in E. coli, refolded in vitro (using the methodology of WO94/18227), and purified to give a homogeneous product. The values of kₒₙ and koff were determined for 6B1 IgG4 for binding to both TGFβ2 and TGFβ3, and for the single-chain Fv 6B1 for binding to TGFβ2. The dissociation constant was calculated by dividing koff by kₒₙ.
On the technique in general: In SPR one partner is held on a chip, and binding of the other changes the refractive index at the surface.

Assay [3] has as its target T2, recombinant human TGFβ1 (human, UniProt P01137 279-390).
T2 construct: mature; also called TGFbeta1
Put plainly: A549 cell radioreceptor assay (nM IgG); A549 cell radioreceptor assay; no inhibition up to 400 nM IgG. On the procedure:
as §1
The ability of 6B1 IgG4 to inhibit binding of TGFβ isoforms to receptors was measured in a radioreceptor assay as described in example 4.

The target of a further assay is hen egg lysozyme (hen, UniProt P00698 19-147). Kind of assay: ELISA, antigen coated at 10 µg/ml, anti-human Fc alkaline phosphatase conjugate, OD405 nm [a]. As for the experimental part:
(§2) For both FIG. 13(a) and FIG. 13(b), antigens 1 to 15 were used for coating the plate at a concentration of 10 μg/ml in PBS. The TGFbetas were coated at 0.2 μg/ml in PBS. Coating was performed at 4° C. overnight. […] of each antigen was used per well and duplicates of each antigen for each IgG to be tested. IgG samples were incubated with the coated antigens at 37° C. for 2 hours after blocking with 2%. marvel-PBS. The labelled second antibody was a mouse anti-human Fc1 alkaline phosphatase conjugated and the substrate used to detect bound second antibody was PNPP at 1 mg/ml with the absorbance read at 405 nm.
In general terms: In an ELISA, binding on a coated surface is turned into a signal by an enzyme label.

The target in the next assay is T3, bovine serum albumin (bovine, UniProt P02769 25-607).
T3 construct: also called BSA
T3 sequence (P02769 25-607 limits assumed): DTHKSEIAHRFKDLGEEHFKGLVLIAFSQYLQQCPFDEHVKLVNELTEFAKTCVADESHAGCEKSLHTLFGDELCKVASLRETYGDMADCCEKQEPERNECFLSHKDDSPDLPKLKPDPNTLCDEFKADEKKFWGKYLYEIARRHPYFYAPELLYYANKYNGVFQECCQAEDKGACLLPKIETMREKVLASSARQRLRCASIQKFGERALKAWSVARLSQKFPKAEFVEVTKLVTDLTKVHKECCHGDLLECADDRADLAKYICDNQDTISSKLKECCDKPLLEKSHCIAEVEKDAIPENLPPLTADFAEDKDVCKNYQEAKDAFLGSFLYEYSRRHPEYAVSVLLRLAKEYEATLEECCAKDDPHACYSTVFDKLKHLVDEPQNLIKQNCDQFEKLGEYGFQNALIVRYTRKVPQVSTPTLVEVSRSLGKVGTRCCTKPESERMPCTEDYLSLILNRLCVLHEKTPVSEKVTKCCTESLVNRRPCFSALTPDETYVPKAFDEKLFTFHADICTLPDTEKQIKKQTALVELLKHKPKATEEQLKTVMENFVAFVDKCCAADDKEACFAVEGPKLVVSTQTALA
The description is as above. As for the experimental part:
as §2

The next assay deals with human insulin (human, UniProt P01308 25-54; P01308 90-110, limits assumed). The description is as above. On the procedure: as §2
Chain of human insulin (P01308 25-54 limits assumed, chain 1 of 2): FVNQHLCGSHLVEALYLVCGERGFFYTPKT
Chain of human insulin (P01308 90-110 limits assumed, chain 2 of 2): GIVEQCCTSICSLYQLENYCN
The next assay addresses T4, ovalbumin (UniProt P01012 2-386).
T4 sequence (looked up): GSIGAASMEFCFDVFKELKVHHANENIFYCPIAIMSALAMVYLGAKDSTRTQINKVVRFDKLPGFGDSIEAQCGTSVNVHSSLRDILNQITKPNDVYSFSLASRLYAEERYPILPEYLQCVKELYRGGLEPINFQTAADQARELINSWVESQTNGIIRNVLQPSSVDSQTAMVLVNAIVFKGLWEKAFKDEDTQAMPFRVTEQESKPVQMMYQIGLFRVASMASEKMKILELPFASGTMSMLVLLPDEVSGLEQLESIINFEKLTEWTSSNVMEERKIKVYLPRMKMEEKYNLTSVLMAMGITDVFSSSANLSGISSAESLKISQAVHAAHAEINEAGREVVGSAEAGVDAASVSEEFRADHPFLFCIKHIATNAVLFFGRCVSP
Described as above. On the procedure: as §2

For the next assay, the target named is T5, human lymphotoxin (TNFβ) (human, UniProt P01374 35-205, limits assumed).
T5 sequence (looked up): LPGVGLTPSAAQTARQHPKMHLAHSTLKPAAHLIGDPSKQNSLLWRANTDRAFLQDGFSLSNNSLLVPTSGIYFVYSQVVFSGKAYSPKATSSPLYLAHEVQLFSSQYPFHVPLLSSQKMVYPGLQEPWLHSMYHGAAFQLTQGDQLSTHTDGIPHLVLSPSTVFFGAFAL
The description is as above. On the procedure:
as §2

The target of assay [4] is T1, recombinant human TGFβ2. Kind of assay: cell-based or functional assay.
Assay [5] deals with T1, recombinant human TGFβ2. Put plainly: cell-based or functional assay. The source holds these as a separate data set.
For assay [6], the target named is T2, recombinant human TGFβ1. Put plainly: cell-based or functional assay.
The target of assay [7] is T1, recombinant human TGFβ2. Kind of assay: cell-based or functional assay. The source holds these as a separate data set.

T2 sequence (P01137 279-390 limits assumed): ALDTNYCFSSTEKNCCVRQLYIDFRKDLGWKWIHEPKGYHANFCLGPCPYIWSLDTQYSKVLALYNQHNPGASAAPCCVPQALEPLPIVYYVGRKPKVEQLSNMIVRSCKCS
Chain of hen egg lysozyme (P00698 19-147): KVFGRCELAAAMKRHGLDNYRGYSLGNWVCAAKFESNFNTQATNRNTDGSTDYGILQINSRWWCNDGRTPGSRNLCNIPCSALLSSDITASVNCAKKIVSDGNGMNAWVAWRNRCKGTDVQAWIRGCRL

B1: 6B1 IgG4 (antibody, V domains shown)
VH: EVQLVESGGGVVQPGRSLRLSCAASGFTFSSYGMHWVRQAPGKGLEWVAVIWYDGSNKYYADSVKGRFTISRDNSKNTLYLQMDSLRAEDTAVYYCGRTLESSLWGQGTLVTVSS
VL: SSELTQDPAVSVALGQTVRITCQGDSLRSYYASWYQQKPGQAPVLVIYGKNNRPSGIPDRFSGSSSGNTASLTITGAQAEDEADYYCNSRDSSSTHRGVFGGGTKLTVLG
notes: Whole antibody: human gamma 4 and human lambda constant regions; FITC-labelled in the human tissue study; also called antibody 6B1
For B1, the IC50 was 0.6 nM with recombinant human TGFβ2 [1] and more than 400 nM in the assay with recombinant human TGFβ1 [3]. Further, the Kd in the assay with recombinant human TGFβ2 [2] is 0.89 nM. In addition, the binding result with hen egg lysozyme, in the assay with bovine serum albumin, in the assay with human insulin, with ovalbumin and in the assay with human lymphotoxin (TNFβ) was “no binding” each time. In addition, in the assay with recombinant human TGFβ2 [4], the “IC50 in TF1 neutralisation assay, 6B1 IgG4 from GS/NS0 cell line 5D8-2A6” value was 1.8 nM. The “I.C.50 in TF1 assay (neutralisation of TGFβ2 inhibition of TF1 cell proliferation)” value with recombinant human TGFβ2 [5] was 11 nM. The “TF1 cell proliferation assay IC50 (nM IgG)” value with recombinant human TGFβ1 [6] is more than 100 nM; with recombinant human TGFβ2 [7], 2 nM.

In general, IC50 refers to the point on the concentration scale where inhibition reaches its midpoint. The Kd is a measure of binding affinity in units of concentration.
